According to publication PMC2818599:

Target: HLA-DR DRB1 *1101 (human)
Assay: radioligand binding

## HER-2/neu.59 (peptide)
  IC50: 30 nM
